These results are taken from US20260216242A1 (ALMAC DISCOVERY, published 2026).

Assay [1] concerns the target T1, ALPP CysHis (human, UniProt P05187 23-502).
T1 construct: Whole entry: engineered human ALPP with an introduced cysteine and a His tag; homodimer; also called engineered ALPP homodimer; hALPP (ELISA)
In words: ELISA, antigen coated. From the text:
(§1) ELISA was used to test the binding and specificity of the VHHs. […] Anti-Llama—HRP antibody was used for detection.

The target of assay [2] is T2, ALPI His homodimer (human, UniProt P09923 20-503).
T2 construct: Whole entry with His tag; used in ELISA and BLI; also called hALPI
T2 sequence: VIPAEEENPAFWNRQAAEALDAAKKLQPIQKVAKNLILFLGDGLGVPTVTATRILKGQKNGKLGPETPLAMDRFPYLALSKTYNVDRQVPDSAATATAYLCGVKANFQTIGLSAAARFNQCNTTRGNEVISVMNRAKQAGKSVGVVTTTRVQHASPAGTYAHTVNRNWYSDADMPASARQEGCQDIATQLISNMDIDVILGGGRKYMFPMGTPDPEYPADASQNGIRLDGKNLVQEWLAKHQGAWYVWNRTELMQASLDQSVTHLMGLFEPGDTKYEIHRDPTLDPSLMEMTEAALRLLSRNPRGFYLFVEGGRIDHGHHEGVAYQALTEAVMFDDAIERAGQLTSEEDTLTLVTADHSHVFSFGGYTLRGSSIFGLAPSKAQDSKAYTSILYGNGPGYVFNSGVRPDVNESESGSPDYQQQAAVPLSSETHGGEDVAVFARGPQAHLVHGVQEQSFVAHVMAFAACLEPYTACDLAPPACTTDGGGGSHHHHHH
In words: ELISA, antigen coated.
Source text: as §1
For orientation: In an ELISA, binding on a coated surface is turned into a signal by an enzyme label.

In assay [3] the target is T3, Human ALPP (leucine zipper) (human).
T3 construct: Whole entry: ALPP fused with a cysteine stabilised leucine zipper and His tag; also called hALPP
T3 chain: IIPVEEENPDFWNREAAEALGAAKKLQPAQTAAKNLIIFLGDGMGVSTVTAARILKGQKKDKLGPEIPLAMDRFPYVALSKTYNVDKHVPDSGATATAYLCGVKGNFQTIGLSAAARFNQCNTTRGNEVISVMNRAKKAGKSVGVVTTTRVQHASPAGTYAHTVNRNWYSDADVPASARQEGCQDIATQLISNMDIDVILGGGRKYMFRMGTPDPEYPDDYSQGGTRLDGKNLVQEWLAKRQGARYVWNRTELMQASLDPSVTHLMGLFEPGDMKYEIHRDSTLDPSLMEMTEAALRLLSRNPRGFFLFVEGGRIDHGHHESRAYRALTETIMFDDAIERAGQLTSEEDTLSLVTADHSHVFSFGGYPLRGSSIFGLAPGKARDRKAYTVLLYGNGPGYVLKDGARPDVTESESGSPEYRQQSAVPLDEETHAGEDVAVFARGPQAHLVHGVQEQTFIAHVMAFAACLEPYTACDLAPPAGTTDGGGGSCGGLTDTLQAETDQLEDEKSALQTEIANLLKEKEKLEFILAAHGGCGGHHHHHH
In words: BLI, antigen immobilised. As to the method: (§2) Binding kinetics were determined using the Biolayer Interferometry (BLI) Octet K2 system (Sartorius). […] All assays were conducted in PBS with a plate temperature of 25° C. Ka (M⁻¹s⁻¹), Kd (s⁻¹) and KD (nM) values were determined using Octet Data Analysis High Throughput software (ForteBio) for Biolayer Interferometry.
(In general: In BLI a coated tip is dipped into the sample, and binding shifts an interference pattern.)

Assay [4] deals with T4, Human ALPL (leucine zipper) (human).
T4 construct: Whole entry: fused with a cysteine stabilised leucine zipper and His tag; also called hALPL
T4 chain: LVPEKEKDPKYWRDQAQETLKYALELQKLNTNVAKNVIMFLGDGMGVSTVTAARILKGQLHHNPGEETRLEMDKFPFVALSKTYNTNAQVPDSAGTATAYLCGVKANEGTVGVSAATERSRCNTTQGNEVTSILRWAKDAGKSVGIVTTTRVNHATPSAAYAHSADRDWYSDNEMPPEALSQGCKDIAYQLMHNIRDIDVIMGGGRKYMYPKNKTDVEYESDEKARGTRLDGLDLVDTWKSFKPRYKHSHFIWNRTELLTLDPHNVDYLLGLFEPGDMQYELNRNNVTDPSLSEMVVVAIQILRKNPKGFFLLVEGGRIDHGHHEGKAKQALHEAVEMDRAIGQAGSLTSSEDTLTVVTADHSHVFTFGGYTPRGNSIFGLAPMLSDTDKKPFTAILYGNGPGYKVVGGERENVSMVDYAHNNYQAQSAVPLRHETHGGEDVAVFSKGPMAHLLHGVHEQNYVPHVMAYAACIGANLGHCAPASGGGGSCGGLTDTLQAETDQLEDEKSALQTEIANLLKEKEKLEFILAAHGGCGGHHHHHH
In words: BLI, antigen immobilised. As to the method: as §2

B1: B09 (VHH, not shown: small tags and cut ends)
VHH: QVQLVESGGGSVQAGGSLRLSCAASGPSLSHYAMGWFRQAPGKEREFVAGISWGGGRTSYTDSVKGRFTISRDNAKNTVYLQMNNLKPEDTGVYYCAGRYGRGRNVEYEYDYWGQGTQVTVSS
In the case of B1, the binding result is given as “binds” in assay [1], “no binding (tested: 500 ng VHH)” in assay [2] and “no binding” in assay [4]. The Kd (in general, the equilibrium constant for the complex coming apart) in assay [3] is under 0.01 nM. Moreover, the koff (commonly a measure of how fast the partners let go of each other) in assay [3] is under 1e-07 s⁻¹. In assay [3], the kon – broadly, a measure of how fast the partners come together – worked out at 237000 M⁻¹ s⁻¹.

B2: H09 (VHH, not shown: small tags and cut ends)
VHH: QVQLVESGGGSVQTGGSLRLSCAASGPSLSNYAMGWFRQAPGKEREFVAGISWGGGRTNYLDSVKGRFTISRDNAKNTMYLQMNSLKPEDTAVYYCAGRYGRGRDVEYEYDYWGQGTQVTVSS
In the case of B2, in assay [1], the binding result is recorded as “binds”. Besides, the binding result in assay [2] is on record as “no binding (tested: 500 ng VHH)”. In assay [3], this molecule gave a Kd of under 0.01 nM, a koff of under 1e-07 s⁻¹ and a kon of 58600 M⁻¹ s⁻¹. The binding result in assay [4] is on record as “no binding”.

B3: F09 (VHH, not shown: small tags and cut ends)
VHH: QVQLVESGGGSVQAGGSLRLSCAASGPSLSNYAMGWFRQAPGKEREFVAGISWGGGRTSCTDSVKGRFTISRDNAKNTVYLQMNNLKPEDTGVYYCAGRYGRGRNVEYEYDYWGQGTQVTVSS
For the molecule B3, in assay [1], the binding result is given as “binds”. Further, the binding result in assay [2] was “no binding (tested: 500 ng VHH)”. In assay [3], this molecule displayed a Kd of under 0.01 nM, a koff of under 1e-07 s⁻¹ and a kon of 40600 M⁻¹ s⁻¹. In addition, in assay [4], the binding result is “no binding”.

B4: E11 (VHH, not shown: small tags and cut ends)
VHH: QVQLVESGGGSVQAGGSLRLSCAASGPSLSNFAMGWFRQPPGKEREFVAGISWGGGRTSYTDSVKGRFTISRDNAKNTVYLQMNNLKPEDTGVYYCAGRYGRGRNVEYEYDYWGQGTQVTVSS
As for B4, the values for the binding result in assay [1], in assay [2] and in assay [4] were “binds”, “no binding (tested: 500 ng VHH)” and “no binding”, respectively. Also, the kon in assay [3] is 149000 M⁻¹ s⁻¹.

B5: H10 (VHH, not shown: small tags and cut ends)
VHH: QVQLVESGGGSVQTGGSLRLSCAASGPSLSNYAMGWFRQAPGKEREFVAGISWGGGRTNYLDSVKGRFTISRDNAKNTMYLQMNSLKPEDAAVYYCAGRYGRGRDVEYEYDYWGQGTQVTVSS
For the molecule B5, the binding result in assay [1] is “binds”. Moreover, in assay [2], the binding result was “no binding (tested: 500 ng VHH)”. In assay [3], this molecule had a Kd of 0.19 nM, a koff of 8.5e-06 s⁻¹ and an on-rate constant (kon) of 45900 M⁻¹ s⁻¹. In assay [4], the binding result is “no binding”.

B6: F12 (VHH, not shown: small tags and cut ends)
VHH: QVQLVESGGGLVEAGGSLRLSCAVSGSALSDYNIGWFRQAPGKEREFVARKTWDGSSTKYDDSVKGRFTVSIDNAKNTAYLQMNSLKTEDTAVYYCAAGRYSRVRGWEYDYWGQRTQVTVSS
With B6, the binding result in assay [1] is given as “binds”. Besides, the binding result in assay [2] is “no binding (tested: 500 ng VHH)”. Moreover, in assay [3], the Kd is under 0.01 nM, the koff was under 1e-07 s⁻¹ and the kon turned out to be 38600 M⁻¹ s⁻¹. Also, in assay [4], the binding result is “no binding”.
